Data on 2 proteins can be found in ChEMBL document CHEMBL4613261, “Metabolic and Pharmaceutical Aspects of Fluorinated Compounds” (J Med Chem, 2020).

Substrate in series [1]: C[C@H](N)C(=O)O
Particulars: Escherichia coli B.

Substrate in series [2]: N[C@@H](CF)C(=O)O
Particulars: Escherichia coli B.

Substrate in series [3]: N[C@H](CF)C(=O)O
As to conditions: Escherichia coli B.

Substrate in series [4]: OC[C@@H]1CC[C@H](n2cnc3c(Br)ncnc32)O1
Nature of the series: (§1) Prodrug conversion in rat blood assessed as Km for adenosine deaminase-mediated didanosine formation by HPLC analysis. The series is classed as ADME, tissue-based.

Substrate in series [5]: OC[C@@H]1CC[C@H](n2cnc3c(Cl)ncnc32)O1
The series is described as §1. The series is classed as ADME, tissue-based.

Substrate in series [6]: OC[C@@H]1CC[C@H](n2cnc3c(F)ncnc32)O1
Described as §1. The class given is ADME, tissue-based.

B1: Alanine racemase, biosynthetic (Escherichia coli K-12), P0A6B4 (protein)
chain: MQAATVVINRRALRHNLQRLRELAPASKMVAVVKANAYGHGLLETARTLPDADAFGVARLEEALRLRAGGITKPVLLLEGFFDARDLPTISAQHFHTAVHNEEQLAALEEASLDEPVTVWMKLDTGMHRLGVRPEQAEAFYHRLTQCKNVRQPVNIVSHFARADEPKCGATEKQLAIFNTFCEGKPGQRSIAASGGILLWPQSHFDWVRPGIILYGVSPLEDRSTGADFGCQPVMSLTSSLIAVREHKAGEPVGYGGTWVSERDTRLGVVAMGYGDGYPRAAPSGTPVLVNGREVPIVGRVAMDMICVDLGPQAQDKAGDPVILWGEGLPVERIAEMTKVSAYELITRLTSRVAMKYVD
By Km is commonly meant the substrate concentration at which the rate is half of its maximum. With B1, the figures for the Michaelis constant (Km) in series [1], in series [2] and in series [3] were 1300 µM, 50 µM and 2400 µM, respectively.

B2: (Rattus norvegicus) (protein)
chain: MAQTPAFNKPKVELHVHLDGAIKPETILYYGKKRGIDLPADTVEGLRNIIGMDKPLSLPDFLAKFDYYMPAIAGCREAIKRIAYEFVEMKAKEGVVYVEVRYSPHLLANSKVDPIPWNQAEGDLTPDEVVDLVNQGLQEGEQAFGIKVRSILCCMRHQPSWSPEVLELCKKYHQKTVVAMDLAGDETIEGSSLFPGHVEAYEGAVKDGIHRTVHAGEVGSAEVVREAVDILKTERVGHGYHTIEDEALYNRLLKENMHFEVCPWSSYLTGAWNPKTTHAVVRFKDDQANYSLNSDDPLIFKSTVDTDYQMVKKDMGFTEEEFKRLNINAAKSSFLPEDEKKELLERLYKEYQ
With B2, the Km in series [4] was 16000 µM; in series [5], 17000 µM; in series [6], 720 µM.
